The results in this text go back to publication PMC5679652, “Broadening the functionality of a J-protein/Hsp70 molecular chaperone system” (PLoS Genetics, 2017).

Test [1] concerns the target T1, Ssa1 (wild type, His-tagged) (S. cerevisiae, UniProt P10591 1-642).
T1 construct: Ssa1, cytosolic Hsp70 of Saccharomyces cerevisiae; Ssa1(1-532) is said to lack 110 residues, so the whole protein has 642 residues; Assayed with 1 mM ADP (anisotropy) or as a preformed 32P-ATP complex (ATPase); also called WT Ssa1; His-Ssa

In test [2] the target is T2, Ssa1 K446E (His-tagged) (S. cerevisiae, UniProt P10591 1-642, K446E).
T2 construct: Ssa1, cytosolic Hsp70 of Saccharomyces cerevisiae, with K446E (in SBDbeta); made by QuikChange in the purification plasmid; Same construct as m1 with the point mutation; also called K446E variant
The test is described as follows: fluorescence polarisation; equilibrium titration: 10 nM F-P5 with Ssa1 in 2-fold steps from 2.4 nM to 5 uM, 1 mM ADP, buffer A (25 mM Hepes-KOH pH 7.5, 100 mM KCl, 11 mM MgOAc), 4% glycerol, 0.005% NP-40, 24 hr at room temperature (23°C); one site saturation fit. The settings on record: both partners purified. (In fluorescence polarisation assays a small probe gives low polarisation when free and higher when bound to something large.)

Test [3] addresses T3, Ssa1 R444E (His-tagged) (S. cerevisiae, UniProt P10591 1-642, R444E).
T3 construct: Ssa1, cytosolic Hsp70 of Saccharomyces cerevisiae, with R444E (in SBDbeta); made by QuikChange in the purification plasmid; Same construct as m1 with the point mutation; also called R444E variant
The test is described as above. The conditions noted are these: both partners purified.

Test [4] deals with T1, Ssa1 (wild type, His-tagged). The test is described as above. The conditions noted are these: both partners purified.
Test [5] has as its target T2, Ssa1 K446E (His-tagged). The test is described as follows: cell-based or functional assay.
For test [6], the target named is T3, Ssa1 R444E (His-tagged). The test is described as follows: cell-based or functional assay.
Test [7] deals with T1, Ssa1 (wild type, His-tagged). The test is described as follows: fluorescence polarisation; dissociation kinetics: 5 uM Ssa1, 10 nM F-P5, 1 mM ADP brought to equilibrium, then unlabeled P5 added to 40 uM; read every 10 s; percent of the signal at t = 0. The settings on record: both partners purified.

Where no end group is shown, it is not given here. Flc = fluorescein label

T1 sequence (P10591 whole entry): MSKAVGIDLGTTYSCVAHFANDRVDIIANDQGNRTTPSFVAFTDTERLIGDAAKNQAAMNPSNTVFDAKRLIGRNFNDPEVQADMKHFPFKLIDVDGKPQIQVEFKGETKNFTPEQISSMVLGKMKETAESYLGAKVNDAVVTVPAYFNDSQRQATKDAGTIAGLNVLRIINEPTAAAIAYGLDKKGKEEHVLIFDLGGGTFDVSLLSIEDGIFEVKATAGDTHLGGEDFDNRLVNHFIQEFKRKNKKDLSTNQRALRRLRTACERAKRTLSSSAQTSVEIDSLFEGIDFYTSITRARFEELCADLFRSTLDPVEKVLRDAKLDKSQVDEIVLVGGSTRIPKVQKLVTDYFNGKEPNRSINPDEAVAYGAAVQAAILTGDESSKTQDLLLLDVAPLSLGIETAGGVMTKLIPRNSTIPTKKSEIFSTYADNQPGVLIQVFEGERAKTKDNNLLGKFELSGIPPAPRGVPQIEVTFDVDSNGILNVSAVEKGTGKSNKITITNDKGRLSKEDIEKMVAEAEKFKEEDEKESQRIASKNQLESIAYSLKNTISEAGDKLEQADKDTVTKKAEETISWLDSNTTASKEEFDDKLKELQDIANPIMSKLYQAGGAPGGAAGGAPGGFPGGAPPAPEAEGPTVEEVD
T3 sequence (P10591 whole entry R444E): as the sequence (P10591 whole entry) above, with R444E counted along it
T2 sequence (P10591 whole entry K446E): as the sequence (P10591 whole entry) above, with K446E counted along it

With “Ydj1 G70N (from UniProt P25491 1-409) (natural protein)”, the stimulation of single-turnover ATPase activity of the 32P-ATP/Ssa1 complex, compared with WT Ydj1 (% less active than WT) in test [1] worked out at 20.

B1: fluorescein-labeled P5 peptide (peptide)
peptide: Flc-CALLLSAPRR
notes: peptide substrate P5; also called F-P5; source: bought: Sigma Chemical, St. Louis, MO
As for B1, the binding result in test [2], in test [3] and in test [4] was “binds” each time.

B2: peptide P5 (unlabeled) (peptide)
peptide: CALLLSAPRR
notes: peptide substrate P5; also called unlabeled P5; peptide substrate; source: bought: Sigma Chemical, St. Louis, MO
Regarding B2, the figures for the “fold stimulation of single-turnover ATPase activity of the 32P-ATP/Ssa1 complex by peptide P5, relative to basal activity (four P5 concentrations; value at 133 uM)” value in test [5] and in test [6] were 2.8 fold and 1.7 fold, respectively. Also, the binding result in test [7] is on record as “binds”.
